These results are taken from article PMC10936425.

Where “and” joins values, the source holds several entries; their conditions need not be identical. Equal entries are not always repeated.

The target in test [1] is K2-2 (phage tailspike protein, K2 capsular polysaccharide depolymerase), wild type with an N-terminal His-tag (not stated (bacteriophage of Klebsiella pneumoniae, phage not named)). The experiment in a line: SEC-MALS; 100 microgram protein in 20 mM Tris pH 8.0, 100 mM NaCl, 0.02% NaN3; ENrich SEC 650 column, 0.5 ml/min. For orientation: Size exclusion chromatography separates by hydrodynamic size, large species first.

The target is the same in test [2]. The experiment in a line: crystal structure; N-terminally His-tagged K2-2 (wild type, and E323A soaked with 10 mM hydrolyzed K2 CPS products for 18 h); crystallised at 15°C, 0.1 M Bicine pH 9.0, 22% PEG-6000; space groups P2(1) and C2.
Test [3] concerns the target K2-2 D515A mutant (not stated (bacteriophage of Klebsiella pneumoniae, phage not named)). The experiment in a line: SEC-MALS; 100 microgram protein in 20 mM Tris pH 8.0, 100 mM NaCl, 0.02% NaN3; ENrich SEC 650 column, 0.5 ml/min.
The target in test [4] is K2-2 E323A mutant (not stated (bacteriophage of Klebsiella pneumoniae, phage not named)). The experiment in a line: crystal structure; N-terminally His-tagged K2-2 (wild type, and E323A soaked with 10 mM hydrolyzed K2 CPS products for 18 h); crystallised at 15°C, 0.1 M Bicine pH 9.0, 22% PEG-6000; space groups P2(1) and C2.
Test [5] addresses K2-2 S424A mutant (not stated (bacteriophage of Klebsiella pneumoniae, phage not named)). The experiment in a line: SEC-MALS; 100 microgram protein in 20 mM Tris pH 8.0, 100 mM NaCl, 0.02% NaN3; ENrich SEC 650 column, 0.5 ml/min.
Test [6] has as its target K2-2 with a C-terminal His-tag (K2-2^C-His) (not stated (bacteriophage of Klebsiella pneumoniae, phage not named)). The test is described as above.
The target is the same in test [7]. As to the kind of experiment: crystal structure; K2-2^C-His crystallised at 15°C, 0.1 M Bicine pH 9.0, 10% PEG-4000, 10% polyacrylic acid 2100 sodium salt; Se-MAD phasing; space group P6(3).

As a reminder, the stoichiometry N is a count of units in the complex or per binding partner. Regarding “K2-2 (phage tailspike protein, K2 capsular polysaccharide depolymerase), wild type with an N-terminal His-tag (enzyme)”, the stoichiometry N in test [1] and in test [2] was 3 each time.
For K2-2 D515A mutant (enzyme), in test [3], the stoichiometry N came to 2.
K2-2 E323A mutant (enzyme): the stoichiometry N in test [4] is 3.
As to K2-2 S424A mutant (enzyme), the stoichiometry N in test [5] was 3.
On to “K2-2 with a C-terminal His-tag (K2-2^C-His) (enzyme)”, for which the stoichiometry N in test [6] was 4 and 3; in test [7] it was 4.
